Experimental data published in patent US20190269666A1, “COMBINATION THERAPY WITH MERESTINIB AND ANTI-PD-L1 OR ANTI-PD-1 INHIBITORS FOR USE IN THE TREATMENT OF CANCER” (Eli Lilly and Company, priority 2016, published 2019).

Key:
Cyno PD-L1 = assay: Binding kinetics and affinity by surface plasmon resonance (Biacore); design: species or system cynomolgus monkey; settings: SPR, analysis at 37° C.
Description: (§1) The kinetics and equilibrium dissociation constant (KD) for human PD-L1 is determined for antibodies of the present invention using surface plasmon resonance (Biacore).
(§2) Immobilization of antibodies of the present invention as ligand on to sensor chip surface is performed at 25° C. Soluble human PD-L1-Fc fusion protein (and in some cases, cynomolgus monkey PD-L1-Fc fusion proteins) is injected as analyte at concentrations ranging from 0.0123 nM-9 nM. The analysis is performed at 37° C. The contact time for each sample is 180 seconds at 30 μL/minute. The dissociation time was 240-1500 seconds. The immobilized surface is regenerated for 18 seconds with 0.95 M NaCl/25 mM NaOH at 30 μL/minute, and then stabilized for 30 seconds. Binding kinetics are analyzed using the Biacore T200 Evaluation software (Version 3.0). Data are referenced to a blank flow cell, and the data are fit to a 1:1 binding model.

PD-L1 binding to PD-1 = PD-L1 binding to PD-1 (Homo sapiens, UniProt Q9NZQ7); assay: ELISA blocking of the interaction of PD-L1 with PD-1; settings: after 4 weeks at 4° C., 25° C. and 40° C.
Sequence of PD-L1 binding to PD-1 (Q9NZQ7 19-239 limits assumed): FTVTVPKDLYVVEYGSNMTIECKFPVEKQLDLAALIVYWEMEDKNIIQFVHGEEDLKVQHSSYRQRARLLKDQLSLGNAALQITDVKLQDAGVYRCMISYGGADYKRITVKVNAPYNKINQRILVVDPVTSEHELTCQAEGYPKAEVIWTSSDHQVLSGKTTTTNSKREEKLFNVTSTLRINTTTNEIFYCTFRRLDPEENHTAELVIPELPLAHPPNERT
Description: The ability for antibodies of the present invention to block PD-L1 binding to PD-1 can be measured in an ELISA assay. For the receptor-ligand blocking assay, varying amounts (of anti-PD-L1 antibody or control IgG are mixed with a fixed amount of biotinylated PD-L1-Fc fusion protein (100 ng/well) and incubated at room temperature for 1 hour. The mixture is transferred to 96-well plates pre-coated with PD-1-Fc (1 μg/ml) and then incubated at room temperature for an additional 1 hour. After washing, streptavidin HRP conjugate is added, and the absorbance at 450 nm is read. IC50 represents the antibody concentration required for 50% inhibition of PD-L1 binding to PD-1.

human PD-L1 [1] = molecular target: T1, human PD-L1 (Homo sapiens, UniProt Q9NZQ7); assay: ELISA binding to recombinant PD-L1; design: purchased R&D Systems; settings: after 4 weeks at 4° C., 25° C. and 40° C.
Description: The ability for antibodies of the present invention to bind human PD-L1 can be measured with an ELISA assay. For the PD-L1 binding assay, a 96-well plate (NUNC®) is coated with human PD-L1-Fc (R&D Systems) overnight at 4° C. Wells are blocked for 2 hours with blocking buffer (PBS containing 5% nonfat dry milk). Wells are washed three times with PBS containing 0.1% TWEEN®-20. Anti-PD-L1 antibody or control IgG (100 μL) is then added and incubated at room temperature for 1 hour. After washing, the plate is incubated with 100 μL of goat anti-human IgG F(ab′)2-HRP conjugate (Jackson Immuno Research) at room temperature for 1 hour. The plates are washed and then incubated with 100 μL of 3,3′, 5,5′-tetra-methylbenzidine. The absorbance at 450 nm is read on a microplate reader. The half maximal effective concentration (EC50) is calculated using GraphPad Prism 6 software.
Target sequence in this assay (Q9NZQ7 with tags, fused parts or gaps limits assumed): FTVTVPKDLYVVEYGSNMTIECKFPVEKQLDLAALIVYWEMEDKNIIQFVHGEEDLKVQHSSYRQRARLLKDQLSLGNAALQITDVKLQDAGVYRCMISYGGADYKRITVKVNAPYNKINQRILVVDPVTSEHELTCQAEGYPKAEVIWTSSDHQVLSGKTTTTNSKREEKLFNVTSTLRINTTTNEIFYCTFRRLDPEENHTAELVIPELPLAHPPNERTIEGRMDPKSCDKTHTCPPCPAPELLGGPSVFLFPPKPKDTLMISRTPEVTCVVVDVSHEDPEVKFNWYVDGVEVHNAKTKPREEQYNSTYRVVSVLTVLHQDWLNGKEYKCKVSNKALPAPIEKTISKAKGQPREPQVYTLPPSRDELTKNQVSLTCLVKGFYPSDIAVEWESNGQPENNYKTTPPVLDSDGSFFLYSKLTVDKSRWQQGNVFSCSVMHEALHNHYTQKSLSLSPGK

human PD-L1 [2] = molecular target: T1, human PD-L1; assay: Binding kinetics and affinity by surface plasmon resonance (Biacore); design: Soluble human PD-L1-Fc fusion protein; settings: SPR, analysis at 37° C.
Description: as §1, §2
Target sequence in this assay (Q9NZQ7 19-238 limits assumed): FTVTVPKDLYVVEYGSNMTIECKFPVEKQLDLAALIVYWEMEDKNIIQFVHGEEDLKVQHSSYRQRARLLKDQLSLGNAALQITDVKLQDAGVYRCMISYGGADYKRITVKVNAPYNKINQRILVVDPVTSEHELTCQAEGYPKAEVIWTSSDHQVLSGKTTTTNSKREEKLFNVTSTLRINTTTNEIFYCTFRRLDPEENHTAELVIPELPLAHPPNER

Koff (Cyno PD-L1): 0.000184 s⁻¹
Kon (Cyno PD-L1): 1.51e+06 M⁻¹ s⁻¹
Koff (human PD-L1 [2]): 0.000114 s⁻¹
Kon (human PD-L1 [2]): 1.4e+06 M⁻¹ s⁻¹
Substance: LY3300054: IgG1 variant antibody lacking Fc effector function, that binds human PD-L1; HC SEQ ID NO: 10, LC SEQ ID NO: 11
blocking activities after storage (PD-L1 binding to PD-1): retains its blocking activities
binding activities after storage (human PD-L1 [1]): retains its binding activities
